Laboratory results from EP4628097A1 (Innovent Biologics (Suzhou) Co., Ltd., dated 2025).

Tests used:
human VEGF165 [1] = biological target: T1, human VEGF165 (human, UniProt P15692-4 27-191); assay: ELISA, relative binding activity; 120 mg/mL formula, T0
T1 construct: all are put under this molecule; also called VEGF A; VEGFA

human Ang2 [2] = biological target: T2, human Ang2 (human, UniProt O15123 19-496, limits assumed); assay: as above
T2 construct: Bought proteins; also called hAng2-biotin; Ang2-Bio (Sino)
T2 sequence (looked up): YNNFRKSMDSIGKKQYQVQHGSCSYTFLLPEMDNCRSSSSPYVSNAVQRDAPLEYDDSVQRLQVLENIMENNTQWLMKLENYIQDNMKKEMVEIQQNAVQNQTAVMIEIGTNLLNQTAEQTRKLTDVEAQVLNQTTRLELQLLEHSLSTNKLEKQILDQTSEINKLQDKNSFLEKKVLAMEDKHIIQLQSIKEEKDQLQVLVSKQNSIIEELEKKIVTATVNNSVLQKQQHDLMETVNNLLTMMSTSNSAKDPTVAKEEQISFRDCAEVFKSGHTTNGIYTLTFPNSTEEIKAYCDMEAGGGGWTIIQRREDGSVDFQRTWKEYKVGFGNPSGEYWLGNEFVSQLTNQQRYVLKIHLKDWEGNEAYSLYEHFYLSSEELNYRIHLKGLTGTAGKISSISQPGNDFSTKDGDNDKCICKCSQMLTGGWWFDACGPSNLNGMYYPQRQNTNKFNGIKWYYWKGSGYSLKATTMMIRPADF

human VEGF165 [3] = biological target: T1, human VEGF165; assay: ELISA, relative binding activity; final formula 40 mg/mL, T0
human Ang2 [4] = biological target: T2, human Ang2; assay: as above
human VEGF165 [5] = biological target: T1, human VEGF165; assay: ELISA, relative binding activity; 120 mg/mL formula, 40 C, 2W
human Ang2 [6] = biological target: T2, human Ang2; assay: as above
human VEGF165 [7] = biological target: T1, human VEGF165; assay: ELISA, relative binding activity; final formula 40 mg/mL, 25 C, 2M
human Ang2 [8] = biological target: T2, human Ang2; assay: as above
human VEGF165 [9] = biological target: T1, human VEGF165; assay: ELISA, relative binding activity; final formula 40 mg/mL, 2-8 C, 6M
human Ang2 [10] = biological target: T2, human Ang2; assay: as above
human VEGF165 [11] = biological target: T1, human VEGF165; assay: ELISA, relative binding activity; IEX04-012 about 40 mg/mL in F6, 40 C, 1 week
human Ang2 [12] = biological target: T2, human Ang2; assay: as above
human VEGF165 [13] = biological target: T1, human VEGF165; assay: ELISA, relative binding activity; IEX04-012 about 40 mg/mL in F1, 40 C, 2 weeks
human Ang2 [14] = biological target: T2, human Ang2; assay: as above
human VEGF165 [15] = biological target: T1, human VEGF165; assay: ELISA, relative binding activity; IEX04-012 about 40 mg/mL in F10, 40 C, 1 week
human Ang2 [16] = biological target: T2, human Ang2; assay: as above
human VEGF165 [17] = biological target: T1, human VEGF165; assay: ELISA, relative binding activity; IEX04-012 about 40 mg/mL in F2, 40 C, 0 weeks
human Ang2 [18] = biological target: T2, human Ang2; assay: as above
human VEGF165 [19] = biological target: T1, human VEGF165; assay: ELISA, relative binding activity; IEX04-012 about 40 mg/mL in F7, 40 C, 0 weeks
human Ang2 [20] = biological target: T2, human Ang2; assay: as above
human VEGF165 [21] = biological target: T1, human VEGF165; assay: ELISA, relative binding activity; IEX04-012 about 40 mg/mL in F7, 40 C, 2 weeks
human Ang2 [22] = biological target: T2, human Ang2; assay: as above
human VEGF165 [23] = biological target: T1, human VEGF165; assay: ELISA, relative binding activity; IEX04-012 about 40 mg/mL in F8, 40 C, 0 weeks
human Ang2 [24] = biological target: T2, human Ang2; assay: as above
human VEGF165 [25] = biological target: T1, human VEGF165; assay: ELISA, relative binding activity; IEX04-012 about 40 mg/mL in F9, 40 C, 0 weeks
human Ang2 [26] = biological target: T2, human Ang2; assay: as above

T1 sequence (P15692 other isoform, or with tags, fused parts or gaps limits assumed): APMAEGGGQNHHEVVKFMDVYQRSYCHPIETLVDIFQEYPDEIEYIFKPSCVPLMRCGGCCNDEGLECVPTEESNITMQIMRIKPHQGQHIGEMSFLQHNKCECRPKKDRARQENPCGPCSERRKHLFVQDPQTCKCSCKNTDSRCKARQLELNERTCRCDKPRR

Relative binding Activity to VEGF A (ELISA, %) (human VEGF165 [1]): 101%
Relative binding Activity to Ang2 (ELISA, %) (human Ang2 [2]): 92%
Relative binding Activity to VEGF A (ELISA, %) (human VEGF165 [3]): 103%
Relative binding Activity to Ang2 (ELISA, %) (human Ang2 [4]): 95%
Relative binding Activity to VEGF A (ELISA, %) (human VEGF165 [5]): 113%
Relative binding Activity to Ang2 (ELISA, %) (human Ang2 [6]): 81%
Relative binding Activity to VEGF A (ELISA, %) (human VEGF165 [7]): 102%
Relative binding Activity to Ang2 (ELISA, %) (human Ang2 [8]): 84%
Relative binding Activity to VEGF A (ELISA, %) (human VEGF165 [9]): 99%
Relative binding Activity to Ang2 (ELISA, %) (human Ang2 [10]): 100%
Relative binding Activity to VEGF (ELISA, %) (human VEGF165 [11]): 98%
Relative binding Activity to Ang2 (ELISA, %) (human Ang2 [12]): 96%
Relative binding Activity to VEGF (ELISA, %) (human VEGF165 [13]): 101%
Relative binding Activity to Ang2 (ELISA, %) (human Ang2 [14]): 100%
Relative binding Activity to VEGF (ELISA, %) (human VEGF165 [15]): 99%
Relative binding Activity to Ang2 (ELISA, %) (human Ang2 [16]): 98%
Relative binding Activity to VEGF (ELISA, %) (human VEGF165 [17]): 100%
Relative binding Activity to Ang2 (ELISA, %) (human Ang2 [18]): 100%
Relative binding Activity to VEGF (ELISA, %) (human VEGF165 [19]): 100%
Relative binding Activity to Ang2 (ELISA, %) (human Ang2 [20]): 100%
Relative binding Activity to VEGF (ELISA, %) (human VEGF165 [21]): 100%
Relative binding Activity to Ang2 (ELISA, %) (human Ang2 [22]): 87%
Relative binding Activity to VEGF (ELISA, %) (human VEGF165 [23]): 100%
Relative binding Activity to Ang2 (ELISA, %) (human Ang2 [24]): 100%
Relative binding Activity to VEGF (ELISA, %) (human VEGF165 [25]): 100%
Relative binding Activity to Ang2 (ELISA, %) (human Ang2 [26]): 100%
B1: IEX04-012 (bispecific antibody)
chain: DIQLTQSPSSLSASVGDRVTITCSASQDISNYLNWYQQKPGKAPKVLIYFTSSLHSGVPSRFSGSGSGTDFTLTISSLQPEDFATYYCQQYSTVPWTFGCGTKVEIKGGGGSGGGGSGGGGSGGGGSEVQLVESGGGLVQPGGSLRLSCAASGYDFTHYGMNWVRQAPGKCLEWVGWINTYTGEPTYAADFKRRFTFSLDTSKSTAYLQMNSLRAEDTAVYYCAKYPYYYGTSHWYFDVWGQGTLVTVSSGGGGSGGGGSGGGGSEVQLLESGGGLVQPGGSLRLSCAASGFALDYYAIGWFRQAPGKGLEGVSCISSGEGSTYYADSVKGRFTISRDNSKNTVYLQMNSLRAEDTAVYYCATDSRGDDVACEGLRRNEYDYWGQGTLVTVSS
